The RNAGym collection of RNA variant scans (doi:10.7554/elife.80360)

B1: CPEB3 Ribozyme (parent)
chain: GGGGGCCACAGCAGAAGCGUUCACGUCGCGGCCCCUGUCAGAUUCUGGUGAAUCUGCGAAUUCUGCUGU

Variants of: B1
Experiment: self-cleavage, relative activity (ratio to wild type); higher = more cleavage; co-transcriptional

| Variant | self-cleavage |
| --- | --- |
| G2A G25C | 0.0386 |
| G2A G25U | 0.0625 |
| G2A A13C | 0.109 |
| G2A A13G | 0.129 |
| G1U U69G | 0.265 |
| G1U U69A | 0.194 |
| G2C G17A | 0.0551 |
| G2C G17C | 0.0475 |
| G2C G50C | 0.0266 |
| G2C G50U | 0.0262 |
| G1U U64A | 0.0494 |
| G1U U64C | 0.0613 |
| G1U U64G | 0.117 |
| G2C U44C | 0.0257 |
| G2A U46G | 0.135 |
| G2A U46C | 0.13 |
| G2A U46A | 0.202 |
| G2C G65C | 0.0537 |
| G1U U43G | 0.113 |
| G1U U43C | 0.127 |
| G1U U43A | 0.0877 |
| G1U G68A | 0.129 |
| G1U G68U | 0.173 |
| G1U G68C | 0.0929 |

| Variant | self-cleavage |
| --- | --- |
| G2C G31U | 0.0216 |
| G2C G31A | 0.0545 |
| G2C G31C | 0.0401 |
| G2A C54A | 0.112 |
| G2A C54U | 0.152 |
| G1U U49C | 0.0511 |
| G1U U49A | 0.124 |
| G1U U49G | 0.152 |
| G2C U46C | 0.0336 |
| G2C U46G | 0.0683 |
| G2C U46A | 0.0309 |
| G2C C27A | 0.0594 |
| G2C C27G | 0.106 |
| G2C C66U | 0.0685 |
| G2C C66A | 0.052 |
| G2A G37A | 0.0498 |
| G2A G37U | 0.0408 |
| G2A G37C | 0.0177 |
| G2C A52C | 0.0825 |
| G2A G3A | 0.0827 |
| G2A G3C | 0.176 |
| G2A G3U | 0.0425 |
| G2C C9G | 0.123 |
| G2C C9A | 0.0938 |

| Variant | self-cleavage |
| --- | --- |
| G2C C24A | 0.0707 |
| G2C C24G | 0.0232 |
| G2A U69A | 0.256 |
| G2A U69G | 0.335 |
| G2A G14A | 0.0649 |
| G2A G14C | 0.075 |
| G2A G14U | 0.0746 |
| G2A C39U | 0.072 |
| G2A C39A | 0.032 |
| G1U U26C | 0.0437 |
| G2C A23C | 0.0568 |
| G2C U62G | 0.0405 |
| G2C U62A | 0.0592 |
| G2A U67C | 0.242 |
| G2A U67A | 0.281 |
| G2A U67G | 0.167 |
| G2A G5C | 0.122 |
| G2A G5A | 0.0392 |
| G2C G5A | 0.0455 |
| G2A C66G | 0.101 |
| G2A C66U | 0.236 |
| G2A C66A | 0.0939 |
| G1U U55C | 0.0608 |
| G1U U55A | 0.109 |

| Variant | self-cleavage |
| --- | --- |
| G1U U55G | 0.118 |
| G2C G4C | 0.0427 |
| G2C G4A | 0.0684 |
| G2C G4U | 0.0417 |
| G1U U61A | 0.0989 |
| G1U U61G | 0.208 |
| G2C U49A | 0.0745 |
| G2C U49C | 0.0424 |
| G2C U49G | 0.0393 |
| G2A G17A | 0.0268 |
| G2A G17U | 0.0353 |
| G2A G19U | 0.0445 |
| G2A G19A | 0.0283 |
| G2C C32A | 0.00762 |
| G2C C32U | 0.0415 |
| G2C C32G | 0.0507 |
| G2C G19C | 0.0249 |
| G2C G19U | 0.0175 |
| G2A G28U | 0.0733 |
| G2A G28A | 0.0492 |
| G1U U46G | 0.0728 |
| G1U U46A | 0.123 |
| G2C U53G | 0.0245 |
| G2C G14C | 0.0627 |

| Variant | self-cleavage |
| --- | --- |
| G2C G14A | 0.0455 |
| G2C C57A | 0.036 |
| G2C C57G | 0.0289 |
| G2C C57U | 0.054 |
| G2A U43G | 0.144 |
| G2A U43A | 0.139 |
| G2A U43C | 0.123 |
| G2C G48U | 0.105 |
| G2C G48C | 0.0429 |
| G2A A10C | 0.259 |
| G2A A10G | 0.201 |
| G2A C7U | 0.0501 |
| G2A C7A | 0.0557 |
| G2C A10U | 0.0719 |
| G2C A10G | 0.0728 |
| G2C A10C | 0.0373 |
| G2C G58C | 0.0216 |
| G2C G58U | 0.0467 |
| G2A A40U | 0.0585 |
| G2C G3A | 0.055 |
| G2C G3C | 0.0247 |
| G2C C63G | 0.0678 |
| G2C C39U | 0.0154 |
| G2C C18A | 0.0265 |

| Variant | self-cleavage |
| --- | --- |
| G2C C18U | 0.0354 |
| G2C C12U | 0.065 |
| G2C C12G | 0.0599 |
| G2A U21A | 0.114 |
| G2A U21G | 0.0545 |
| G2A U21C | 0.0698 |
| G2A G68A | 0.445 |
| G2A G68C | 0.335 |
| G1U U53G | 0.101 |
| G1U U53A | 0.0914 |
| G2A C18U | 0.0628 |
| G2A C34A | 0.0453 |
| G2A C34U | 0.106 |
| G2A G31A | 0.0613 |
| G2A C6U | 0.0868 |
| G2A C6A | 0.044 |
| G2A C6G | 0.0574 |
| G2C U38G | 0.0453 |
| G2C U38C | 0.0174 |
| G2A A59G | 0.129 |
| G2A A59C | 0.0548 |
| G2A A59U | 0.0616 |
| G2C C7A | 0.0323 |
| G2C C7U | 0.0258 |

| Variant | self-cleavage |
| --- | --- |
| G2C U43C | 0.0672 |
| G2C U43A | 0.0772 |
| G2A G41U | 0.0833 |
| G2A G41A | 0.0631 |
| G2A C63U | 0.173 |
| G2A C63G | 0.0931 |
| G2A U49G | 0.149 |
| G2A U49C | 0.21 |
| G2C U20C | 0.0285 |
| G2C U20A | 0.0496 |
| G2C A59C | 0.027 |
| G2C A59U | 0.0322 |
| G2A | 0.216 |
| G2C | 0.0678 |
| G2C A60C | 0.0369 |
| G2C A60U | 0.0243 |
| G2C A60G | 0.0533 |
| G2C A40C | 0.0316 |
| G2C A40U | 0.0469 |
| G2C A40G | 0.0911 |
| G2C C6A | 0.0465 |
| G2C C6U | 0.0751 |
| G2C C6G | 0 |
